Data set [1] deals with Peptide 3 (NpuDnaEC16 capture peptide with ANP photocleavable residue). In words: pull-down; peptide 3 immobilised by its His6 on HisPur Ni-NTA magnetic beads; hCNTF-NpuDnaE(ΔC16) in BYL or HeLa CFPS matrix, overnight, room temperature; captured share from Western blots of the matrix before and after capture; the capture is followed by protein trans splicing, which ligates hCNTF covalently to the peptide's C-terminal stretch. (In general: In western blotting, separated proteins are transferred to a membrane and probed.)

Data set [2] concerns the molecule itself. Briefly: SDS-PAGE without β-mercaptoethanol in the loading buffer, Western blot; purified hCNTF standard; anti-hCNTF polyclonal antibody for detection.

Regarding “hCNTF-NpuDnaE(ΔC16) synthesised in the tobacco BY-2 lysate (BYL) cell free system (from UniProt P26441 1-200)”, the amount of hCNTF bound to the beads in data set [1] was 0.42 μg/mg beads.

In turn, “hCNTF-NpuDnaE(ΔC16) synthesised in the HeLa cell free system (from UniProt P26441 1-200)” registered an amount of hCNTF bound to the beads in data set [1] of 1.14 μg/mg beads.

B1: His6-hCNTF (purified human ciliary neurotrophic factor used as standard) (natural protein, UniProt P26441 1-200, looked up)
chain: MAFTEHSPLTPHRRDLCSRSIWLARKIRSDLTALTESYVKHQGLNKNINLDSADGMPVASTDQWSELTEAERLQENLQAYRTFHVLLARLLEDQQVHFTPTEGDFHQAIHTLLLQVAAFAYQIEELMILLEYKIPRNEADGMPINVGDGGLFEKKLWGLKVLQELSQWTVRSIHDLRFISSHQTGIPARGSHYIANNKKM
notes: human ciliary neurotrophic factor, codon optimised gene, plasmid pOPINF-CNTF (Itkonen et al. 2014); also called purified hCNTF; purified His6-hCNTF; source: E. coli Rosetta 2 (DE3) pLysS, purified (Ni-IDA resin, size exclusion chromatography)
Take B1: the binding result in data set [2] is on record as “binds”.

The values are drawn from paper PMC6086869, “Accelerated pharmaceutical protein development with integrated cell free expression, purification, and bioconjugation” (Scientific Reports, 2018).
